Laboratory results as given in article PMC3928670.

Columns and labels:
[1] = target: BcerB, TOMM dehydrogenase (B-protein) from Bacillus cereus 172560W (Bacillus cereus 172560W); assay: fluorescence polarisation
[2] = target: McbB/D (Escherichia coli) (UniProt P23184); settings: cited from earlier work
UniProt P23184, sequence (P23184 whole entry, chain 1 of 2): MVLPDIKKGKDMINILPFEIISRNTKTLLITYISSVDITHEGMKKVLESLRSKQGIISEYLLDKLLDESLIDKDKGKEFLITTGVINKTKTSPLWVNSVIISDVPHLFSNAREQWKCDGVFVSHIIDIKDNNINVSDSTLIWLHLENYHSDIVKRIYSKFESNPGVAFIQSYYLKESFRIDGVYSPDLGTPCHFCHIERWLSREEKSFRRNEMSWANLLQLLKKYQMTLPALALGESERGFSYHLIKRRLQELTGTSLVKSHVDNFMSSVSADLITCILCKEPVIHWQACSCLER
UniProt P23184, sequence (P23186 whole entry, chain 2 of 2, further chain): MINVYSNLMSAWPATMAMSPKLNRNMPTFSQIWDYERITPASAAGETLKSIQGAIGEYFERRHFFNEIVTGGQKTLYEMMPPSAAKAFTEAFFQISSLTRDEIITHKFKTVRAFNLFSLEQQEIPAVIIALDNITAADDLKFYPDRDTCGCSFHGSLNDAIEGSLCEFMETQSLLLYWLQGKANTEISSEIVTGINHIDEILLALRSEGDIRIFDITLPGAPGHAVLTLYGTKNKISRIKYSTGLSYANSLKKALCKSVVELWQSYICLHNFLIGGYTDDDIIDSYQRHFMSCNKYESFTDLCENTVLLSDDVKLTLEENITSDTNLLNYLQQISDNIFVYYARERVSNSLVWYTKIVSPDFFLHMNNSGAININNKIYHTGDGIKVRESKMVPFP

Substance	Kd [1] [nM]	Kd [2] [nM]
Balh cyclodehydratase (BalhC/D) from Bacillus sp. Al Hakam (complex)	1700	–
McbC (from UniProt P23185)	–	1800
